Consider one molecule from patent US20100303724A1 (UNIVERSITE PARIS DIDEROT PARIS 7, published 2010).

For assay [1], the target named is T1, bovine fibrinogen (Sigma) (bovine, UniProt P02672 20-615; P02676 1-468; P12799 25-444, limits assumed).
T1 construct: Bought protein
T1 sequence (looked up) 1: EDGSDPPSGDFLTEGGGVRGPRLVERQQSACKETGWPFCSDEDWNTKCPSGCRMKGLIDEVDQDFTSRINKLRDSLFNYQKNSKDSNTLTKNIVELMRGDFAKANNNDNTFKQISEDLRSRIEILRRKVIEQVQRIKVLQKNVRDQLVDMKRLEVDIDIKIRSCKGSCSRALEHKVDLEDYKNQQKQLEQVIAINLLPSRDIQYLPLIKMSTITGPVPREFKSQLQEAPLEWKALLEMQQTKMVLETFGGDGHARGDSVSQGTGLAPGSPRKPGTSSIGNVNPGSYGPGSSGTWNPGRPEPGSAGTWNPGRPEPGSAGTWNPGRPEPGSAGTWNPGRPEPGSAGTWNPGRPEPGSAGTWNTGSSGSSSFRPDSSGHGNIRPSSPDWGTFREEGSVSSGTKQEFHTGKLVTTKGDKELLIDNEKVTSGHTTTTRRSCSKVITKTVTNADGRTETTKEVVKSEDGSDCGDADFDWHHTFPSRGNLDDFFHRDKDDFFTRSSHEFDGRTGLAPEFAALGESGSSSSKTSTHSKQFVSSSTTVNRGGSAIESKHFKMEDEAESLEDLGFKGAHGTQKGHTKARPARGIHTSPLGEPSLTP
T1 sequence (looked up) 2: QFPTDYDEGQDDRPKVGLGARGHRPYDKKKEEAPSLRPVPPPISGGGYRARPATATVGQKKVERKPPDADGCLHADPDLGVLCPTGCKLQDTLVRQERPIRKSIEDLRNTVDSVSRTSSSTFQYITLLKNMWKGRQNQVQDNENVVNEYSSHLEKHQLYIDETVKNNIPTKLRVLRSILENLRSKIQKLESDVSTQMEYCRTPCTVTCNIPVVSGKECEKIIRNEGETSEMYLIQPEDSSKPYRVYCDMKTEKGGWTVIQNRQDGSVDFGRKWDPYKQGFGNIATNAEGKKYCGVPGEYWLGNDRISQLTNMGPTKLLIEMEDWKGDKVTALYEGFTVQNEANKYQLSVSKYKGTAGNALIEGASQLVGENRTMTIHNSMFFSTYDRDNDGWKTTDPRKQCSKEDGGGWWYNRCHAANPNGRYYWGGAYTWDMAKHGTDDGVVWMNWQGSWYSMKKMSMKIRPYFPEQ
T1 sequence (looked up) 3: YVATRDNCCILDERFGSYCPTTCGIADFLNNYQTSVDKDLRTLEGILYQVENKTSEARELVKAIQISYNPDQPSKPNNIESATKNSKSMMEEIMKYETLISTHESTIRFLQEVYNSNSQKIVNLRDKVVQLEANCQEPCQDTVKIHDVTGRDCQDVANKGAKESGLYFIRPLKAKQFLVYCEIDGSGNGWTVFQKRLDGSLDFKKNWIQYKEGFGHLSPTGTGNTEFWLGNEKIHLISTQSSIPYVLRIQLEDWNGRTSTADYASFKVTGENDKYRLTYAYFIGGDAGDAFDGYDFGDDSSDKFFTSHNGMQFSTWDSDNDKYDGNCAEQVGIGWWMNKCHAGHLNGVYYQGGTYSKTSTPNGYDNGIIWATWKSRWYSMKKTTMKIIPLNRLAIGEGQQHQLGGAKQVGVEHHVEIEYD
Description: Solid phase assay: biotin-collagelin on coated fibrinogen, detected with peroxidase-coupled extravidin [panel B]. As for the experimental part:
(§1) FIG. 3: Peptide Interaction with collagen and with different macromolecules: A Binding of collagelin to immobilized collagen in microtitration plates. biotin-collagelin or control peptide were incubated with immobilized fibrillar type I collagen and bound peptide was detected using peroxydase-coupled extravidine. In competition experiments collagelin was mixed with recombinant soluble GPVI (50 and 20 μg.mL−1), 9O12 IgGs (50 and 20 μg.mL−1) or 3J24.2 IgGs (50 μg.mL−1) prior to addition to collagen-coated wells. B: Binding of biotin-collagelin or control peptide (50 μg.mL−1) to immobilized fibrinogen, fibronectin, vitronectin and laminin. Coating of microtitration wells with the different proteins was performed as with collagen. Bound peptides were detected using peroxidase coupled extravidine.
(§2) Proteins [type I equine fibrillar collagen (Horm), bovine fibrinogen (Sigma), human fibronectin (Sigma), rat vitronectin (Sigma), murine laminin (Gibco), and bovine serum albumin (BSA Sigma)] were coated (1 μg/well) on microtitration plates (Immulon 2 Dynex vWR) for 24 hours at 4° C. After saturation of free sites with BSA, biotinylated FLIGPVI peptide (50 μg/ml) was added to the wells for 2 hours. The peptide bound to the wells was then detected using extravidin-HRP and orthophenyldiamine as substrate.

Assay [2] concerns the target T2, soluble recombinant GPVI-Fc fusion protein (human, UniProt Q9HCN6 21-269, limits assumed).
T2 construct: also called recombinant soluble GPVI; recombinant soluble human GPVI-Fc; not shown: Fc part
T2 sequence (looked up): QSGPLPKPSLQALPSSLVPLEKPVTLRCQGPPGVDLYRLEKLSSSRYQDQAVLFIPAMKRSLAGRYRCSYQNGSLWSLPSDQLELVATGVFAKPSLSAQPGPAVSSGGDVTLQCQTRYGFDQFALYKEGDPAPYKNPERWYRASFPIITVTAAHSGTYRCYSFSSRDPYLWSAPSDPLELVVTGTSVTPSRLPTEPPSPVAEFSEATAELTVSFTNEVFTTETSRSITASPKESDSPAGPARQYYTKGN
In words: SPR; biotin-collagelin on a streptavidin sensorchip. In general terms: Surface plasmon resonance follows binding to a sensor surface in real time, without labels.

Assay [3] addresses T3, type I equine fibrillar collagen (Collagen Horm, Nycomed) (equine).
T3 construct: Bought fibrillar preparation; also called type I collagen; fibrillar type I collagen
In words: SPR; biotin-collagelin injected on collagen amine-coupled to a CM5 sensorchip. As for the experimental part: FIG. 2: Interaction of the collagelin with collagen: A Collagen was injected on biotin-collagelin immobilized on a streptavidin coated sensorchip. ˜10 RU collagen were bound onto the collagelin coated surface (dark). The fit is also indicated (grey). Non-specific background signal from a control flow cell coated with an irrelevant peptide was deduced. B Binding of collagelin to immobilized collagen. Increasing quantities of biotin-collagelin (250, 500 μg.mL−1) were injected on a collagen immobilized on a CM5 sensorchip. Sensorgrams and interaction fits obtained with the peptide are shown in black and grey respectively. Non-specific background measured using an irrelevant peptide was deduced.
In other experiments, fibrillar collagen was manually immobilized on a CM5-sensorchip according to the manufacturer's instructions (Biacore, Uppsala, Sweden). The biotinylated peptide (125; 250, 500 and 1000 μg/mL) was injected on immobilized collagen at 25° C. with a flow rate of 20 μL.min−1. In competition experiments, the peptide was pre-incubated with recombinant soluble human GPVI-Fc or the 9O12.2 IgGs before injection onto the surface. The surface plasmon resonance intensity was monitored and data analyzed using BioEval2.0 (Biacore).
Using the streptavidin-coated sensorship onto which biotin-collagelin was immobilized we observed binding of type I collagen to the surface (FIG. 2A). […]

Assay [4] concerns the target T4, human fibronectin (Sigma) (human, UniProt P02751-8 32-2296, limits assumed).
T4 construct: Bought protein
Description: Solid phase assay: biotin-collagelin on coated fibronectin, detected with peroxidase-coupled extravidin [panel B]. Here is the method:
as §1, §2

Bridge positions count the residues as written; N and C are the ends. * marks the point of attachment. Biotin = O=C1N[C@H]2[C@H](CS[C@H]2CCCCC(=O)*)N1

T4 sequence (P02751 other isoform, or with tags, fused parts or gaps limits assumed): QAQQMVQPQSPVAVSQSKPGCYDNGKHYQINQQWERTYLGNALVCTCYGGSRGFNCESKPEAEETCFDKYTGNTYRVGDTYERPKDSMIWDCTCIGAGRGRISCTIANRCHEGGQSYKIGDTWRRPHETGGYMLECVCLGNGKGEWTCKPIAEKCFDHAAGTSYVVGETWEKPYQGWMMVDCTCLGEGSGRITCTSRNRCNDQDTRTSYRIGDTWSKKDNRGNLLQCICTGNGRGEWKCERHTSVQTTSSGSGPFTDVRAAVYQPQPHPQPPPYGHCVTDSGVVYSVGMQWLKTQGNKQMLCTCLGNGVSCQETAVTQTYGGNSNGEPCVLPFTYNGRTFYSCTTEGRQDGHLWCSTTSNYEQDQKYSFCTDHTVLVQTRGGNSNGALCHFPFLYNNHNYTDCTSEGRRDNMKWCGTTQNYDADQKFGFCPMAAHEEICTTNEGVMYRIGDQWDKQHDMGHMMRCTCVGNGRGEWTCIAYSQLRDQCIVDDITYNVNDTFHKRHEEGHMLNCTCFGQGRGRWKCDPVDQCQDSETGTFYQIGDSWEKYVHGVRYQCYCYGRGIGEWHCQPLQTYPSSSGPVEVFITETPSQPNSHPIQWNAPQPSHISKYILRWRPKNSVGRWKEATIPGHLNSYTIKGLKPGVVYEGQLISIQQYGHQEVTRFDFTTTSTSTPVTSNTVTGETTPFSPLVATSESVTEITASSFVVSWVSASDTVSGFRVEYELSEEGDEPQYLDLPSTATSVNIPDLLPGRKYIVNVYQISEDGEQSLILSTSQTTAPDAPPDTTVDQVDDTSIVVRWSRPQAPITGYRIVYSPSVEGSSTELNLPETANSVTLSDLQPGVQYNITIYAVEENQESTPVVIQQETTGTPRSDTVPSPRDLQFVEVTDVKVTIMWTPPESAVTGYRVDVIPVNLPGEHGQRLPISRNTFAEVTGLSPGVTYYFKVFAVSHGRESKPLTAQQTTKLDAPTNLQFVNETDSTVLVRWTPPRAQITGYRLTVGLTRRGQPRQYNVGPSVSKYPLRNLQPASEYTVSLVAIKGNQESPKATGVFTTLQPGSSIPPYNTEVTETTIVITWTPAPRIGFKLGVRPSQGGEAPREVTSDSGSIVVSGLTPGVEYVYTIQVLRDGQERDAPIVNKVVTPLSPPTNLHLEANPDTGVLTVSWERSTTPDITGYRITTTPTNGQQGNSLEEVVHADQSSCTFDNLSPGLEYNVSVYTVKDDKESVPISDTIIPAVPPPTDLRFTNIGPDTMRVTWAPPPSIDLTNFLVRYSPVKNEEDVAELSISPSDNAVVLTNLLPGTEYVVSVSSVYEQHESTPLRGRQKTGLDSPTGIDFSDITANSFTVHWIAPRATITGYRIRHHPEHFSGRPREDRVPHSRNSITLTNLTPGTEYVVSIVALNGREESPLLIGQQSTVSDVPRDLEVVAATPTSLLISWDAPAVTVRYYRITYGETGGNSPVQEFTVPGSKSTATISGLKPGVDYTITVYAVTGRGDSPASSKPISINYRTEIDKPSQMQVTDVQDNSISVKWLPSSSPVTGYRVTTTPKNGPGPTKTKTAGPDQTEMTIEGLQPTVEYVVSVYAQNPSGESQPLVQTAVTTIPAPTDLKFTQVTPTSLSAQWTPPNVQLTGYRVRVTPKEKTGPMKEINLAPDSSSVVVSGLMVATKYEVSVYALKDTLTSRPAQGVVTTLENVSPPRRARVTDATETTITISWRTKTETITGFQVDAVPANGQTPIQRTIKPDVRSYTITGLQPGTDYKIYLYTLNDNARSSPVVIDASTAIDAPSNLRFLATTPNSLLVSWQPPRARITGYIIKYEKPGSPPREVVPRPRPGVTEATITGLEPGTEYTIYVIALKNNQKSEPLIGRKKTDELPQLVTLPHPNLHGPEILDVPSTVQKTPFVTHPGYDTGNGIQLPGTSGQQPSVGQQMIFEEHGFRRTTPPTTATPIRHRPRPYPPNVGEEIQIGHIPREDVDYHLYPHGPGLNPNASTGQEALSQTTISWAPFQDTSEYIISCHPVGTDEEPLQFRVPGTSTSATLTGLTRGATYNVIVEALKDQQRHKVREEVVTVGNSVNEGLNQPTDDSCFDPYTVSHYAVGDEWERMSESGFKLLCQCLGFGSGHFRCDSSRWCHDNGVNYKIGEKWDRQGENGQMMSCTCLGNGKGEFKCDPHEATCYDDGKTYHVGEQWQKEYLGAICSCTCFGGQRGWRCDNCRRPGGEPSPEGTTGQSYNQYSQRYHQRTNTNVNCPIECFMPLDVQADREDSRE

B1: biotin-collagelin (peptide)
peptide: Biotin-SGSGCGPRVMHGLHLGDDEGPC-NH2
modifications: disulfide 5-22
SMILES: CSCC[C@@H]1NC(=O)[C@H](C(C)C)NC(=O)[C@H](CCCNC(=N)N)NC(=O)[C@@H]2CCCN2C(=O)CNC(=O)[C@@H](NC(=O)CNC(=O)[C@H](CO)NC(=O)CNC(=O)[C@H](CO)NC(=O)CCCC[C@@H]2SC[C@@H]3NC(=O)N[C@@H]32)CSSC[C@@H](C(N)=O)NC(=O)[C@@H]2CCCN2C(=O)CNC(=O)[C@H](CCC(=O)O)NC(=O)[C@H](CC(=O)O)NC(=O)[C@H](CC(=O)O)NC(=O)CNC(=O)[C@H](CC(C)C)NC(=O)[C@H](Cc2c[nH]cn2)NC(=O)[C@H](CC(C)C)NC(=O)CNC(=O)[C@H](Cc2c[nH]cn2)NC1=O
notes: also called biotinylated collagelin
In general, Kd refers to the equilibrium constant for the complex coming apart. Read a high Kd as lower affinity. Consider B1, for which the binding result is “no binding (tested: 50 µg/mL (legend))” in assay [1], “no binding (tested: 25 µg/ml)” in assay [2] and “no binding (tested: 50 µg/mL (legend))” in assay [4]. In assay [3], this molecule came in with a Kd of 100 nM.
